Laboratory results taken from publication PMC4743974, “Xenobiotic Compounds Degradation by Heterologous Expression of a Trametes sanguineus Laccase in Trichoderma atroviride” (PLoS ONE, 2016).

Substrate: CCn1c(=NN=c2sc3cc(S(=O)(=O)O)ccc3n2CC)sc2cc(S(=O)(=O)O)ccc21
Assay: purified protein
Type: biochemical, Trametes sanguinea
Settings: 100 mM sodium succinate pH 4, room temperature (routine assay conditions)

B1: Recombinant Lcc (TaLcc3 laccase) (Trametes sanguinea) (protein)
chain: AIGPKADLVISDAVVNPDGTPRDAVVVNGAFPGPLISGKKGDHFQLNVINKLTNHTMLKTTSIHWHGLFQEHTNWADGPAFVNQCPIASGHSFLYDFHVPDQAGTYWYHSHLSTQYCDGLRGPLVVYDPHDPQAHLYDVDNDDTVITLADWYHVAAKVGPQFPRGADSTLINGRGRAASDSTAELTVITVEHGKRYRFRLVSISCDPNHTFSIDGHNMTIIEVEGVNSKPLTVDSIQIFAAQRYSFMLNANQPVDNYWIRANPSGGTVGFEGGINSAILRYKGAPDAEPTNTTAPTSVIPLVETNLHPLKPMQVPGRSGIGNVDYAKTLNFNFNGTNFFINNATFTPPTVPVLLQILSGAHSAQDLLPPGSVYTLPPHSAIEITMPATTMAPGSPHPFHLHGHVFAVVRSAGSTEYNYHDPIFRDVVSTGQPGDSVTIRFMTDNPGPWFLHCHIDFHLEAGFAIVFAEDVNEIKYANPVPPSWAELCPIYDKLPESDH
notes: full cDNA with native signal peptide (predicted cleaved between residues 20 and 21), no tag mentioned; secreted by Trichoderma atroviride IMI206040 strain Talcc3; purified; ORF 1557 bp, 519 amino acids
B1 showed a Km of 48.10 ± 4.9 µM, a kcat of 69.7 ± 3.47 s⁻¹ and a kcat/Km of 1.44e+06 M⁻¹ s⁻¹.
